{"source": "patent US20070196883A1", "about": "“ENZYME” (UNIVERSITY OF DUNDEE, priority 1999, published 2007)", "key": {"endogenous PDK1": {"target": "T1, endogenous PDK1 (Homo sapiens, UniProt O15530)", "T1 construct": "endogenous in cells; host or cells: 293 cells", "T1 sequence (O15530 1-556)": "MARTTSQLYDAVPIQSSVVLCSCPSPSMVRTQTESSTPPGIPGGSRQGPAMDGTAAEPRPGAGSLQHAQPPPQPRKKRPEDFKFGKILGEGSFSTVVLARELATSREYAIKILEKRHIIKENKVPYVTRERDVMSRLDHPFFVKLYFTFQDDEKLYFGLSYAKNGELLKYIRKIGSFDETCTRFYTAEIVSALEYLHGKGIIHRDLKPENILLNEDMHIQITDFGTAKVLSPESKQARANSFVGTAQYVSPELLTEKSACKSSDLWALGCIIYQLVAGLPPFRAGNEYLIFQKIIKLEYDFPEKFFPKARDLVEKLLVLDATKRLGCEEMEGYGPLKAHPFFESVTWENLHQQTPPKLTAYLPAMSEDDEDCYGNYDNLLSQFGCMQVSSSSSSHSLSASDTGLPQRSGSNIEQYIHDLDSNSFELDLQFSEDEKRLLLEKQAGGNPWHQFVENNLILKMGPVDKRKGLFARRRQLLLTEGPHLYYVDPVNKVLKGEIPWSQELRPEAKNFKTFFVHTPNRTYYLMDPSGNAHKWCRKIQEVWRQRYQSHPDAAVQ", "assay": "Association of endogenous PDK1 with GST-PIF proteins purified from 293 cells", "type": "binding", "conditions": "expressed in 293 cells, glutathione-Sepharose purified; PDK1 immunoblot and activity", "description": "FIG. 3. Mapping the residues on PIF that are required for the interaction with PDK1. (A) 293 cells were transiently transfected with DNA constructs expressing either the wild type GST-PIF or the indicated point mutations of this protein. The cells were lysed and the GST fusion proteins purified by affinity chromatography on glutathione-Sepharose beads. Each GST-fusion protein was incubated for 30 min at 30° C. with GST-S473D-PKBα and MgATP in the presence or absence of phospholipid vesicles containing 100 μM PtdCho, 100 μM PtdSer, 10 μM sn-1-stearoyl-2-arachidonoyl-D-PtdIns(3,4,5)P3, and the increase in specific activity of GST-S473D-PKBα was determined relative to a control incubation in which the GST fusion protein was omitted. The basal activity of GST-S473D-PKBα was 3.5 U/mg. 2 μg of each protein was electrophoresed on a 10% SDS/polyacrylamide gel and either immunoblotted using a PDK1 antibody raised against whole protein to detect any endogenous PDK1, or stained with Coomassie blue to establish the level of expression of the GST-PIF protein. Similar results were obtained in 5 separate experiments using 2 or more preparations of the wild type and mutant GST-PIF proteins. (B) Yeast harbouring the pAS2-1 wild type PDK1 vector (“PDK1-Vector”) or the empty pAS2-1 vector (“Vector”) were transformed with pGAD10 plasmid coding for the expression of the wild type PIF or the indicated mutants of PIF. The resulting yeast strain was grown on SD-Leu-Trp-Ura-His+3-AT medium which only permits growth of yeast constructs in which GST-PIF and PDK1 are capable of interacting.\nExpression of GST-fusion proteins in 293 cells. Up to twenty 10 cm diameter dishes of 293 cells were cultured and each dish transfected with 20 μg of pEBG2T DNA encoding the desired GST-fusion protein using a modified calcium phosphate method. In experiments described in FIG. 1 in which Myc-PDK1 constructs (pCMV5 vector) were coexpressed with GST-PIF (pEBG2T vector) or GST alone (empty pEBG2T vector) 10 μg of each construct was used. […]"}, "PDK1 [1]": {"system": "PDK1", "assay": "Activation of GST-ΔPH-PKBα by PDK1 with or without PIF and phosphoinositide", "type": "biochemical", "conditions": "absence of PtdIns(3,4,5)P3", "description": "FIG. 8. Maximal activation of PKB by PDK1/PIF requires PtdIns(3,4,5)P3 to interact with both PKB and PDK1. […] The basal activity of GST-ΔPH-PKBα was 3.0 U/mg.\nMeasurement of PKBα activation after incubation with GST-PIF. This assay was carried out in 2 stages, as described previously; briefly, in the first, GST-PKBα was incubated with GST-PIF (or other indicated PDK1 proteins in the presence or absence of peptides) in the presence of MgATP and phospholipid vesicles.\nIn Stage 1, an 15 μl reaction mixture was set up containing 66.5 mM Tris/HCl pH 7.5, 0.13 mM EGTA, 0.13% (by vol) 2-mercaptoethanol, 3.3 μM PKI, 1.3 μM microcystin-LR, 13.3 mM Mg(Ac)2, 133 μM unlabelled ATP, 0.4 μM GST-PKBA, 133 μM PtdSer, 133 μM PtdCho in the presence or absence of 13.3 μM PtdIns(3,4,5)P3. The assay was initiated by the addition of 5 μl of 0.2 mg/ml GST-PIF (or other indicated proteins or peptides), after incubation for 30 min at 30° C., stage 2 of the assay was initiated by the addition of 30 μl of a mixture made up of Buffer B containing 2.5 μM PKI, 1 μM microcystin-LR, 10 mM Mg(Ac)2, 100 μM [γ^32P]ATP (200-400 cpm/pmol), 100 μM of the peptide RPRTAAF (SEQ ID NO:13) and 1.25% (by vol) Triton X-100. After 10 min at 30° C., the reactions were terminated by spotting the reaction mixture on to P81 phosphocellulose paper. The papers were washed in 75 mM phosphoric acid and analysed as described previously. A control reaction in which GST-PKBα was omitted was taken as the blank and was always less than 5% of the activity measured in the presence of GST-PKBα. The basal GST-PKBα activity is the activity measured in the absence of PDK1. 1 Unit of GST-PKBα activity was that amount of enzyme required to catalyse the phosphorylation of 1 nmol of the peptide RPRTAAF (SEQ ID NO:13) in 1 min. The assays were linear with time up to a final concentration of 3 U/ml of PDK1 activity in the assay."}, "PDK1 [2]": {"target": "T2, PDK1 (Homo sapiens, UniProt O15530)", "T2 construct": "expressed in transfected cells; host or cells: yeast strain Y166", "T2 sequence (O15530 428-556)": "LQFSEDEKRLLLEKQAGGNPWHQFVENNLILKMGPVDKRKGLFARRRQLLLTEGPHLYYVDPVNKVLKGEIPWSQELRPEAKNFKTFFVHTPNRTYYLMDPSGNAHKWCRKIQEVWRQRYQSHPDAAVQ", "assay": "Yeast two hybrid interaction of PIF with PDK1", "type": "binding", "description": "(§1) FIG. 1. Two hybrid interaction of PIF with the kinase domain of PDK1. Yeast were transformed with a pGAD10 plasmid (LEU2) harbouring the C-terminal 77 amino acids of PRK2 (termed PIF) in the presence of either a pAS2-1 plasmid (TRP1) coding for the expression of the wild type PDK1, the kinase domain of PDK1 (residues 1 to 404) or the PH domain of PDK1 (residues 428 to 556) or the empty pAS2-1 vector as a control (denoted by—(A). The position on the plate of each yeast strain is indicated in (A). In (B) the yeast are grown on SD-Leu and Trp deficient media in which all the strains of yeast are capable of growing independently of whether PIF is interacting with PDK1. An interaction between PIF and PDK1 leads to the expression of reporter genes coding for URA3 and HIS1 that will enable growth on SD-Leu-Trp-Ura-His+3-AT medium (C) as well as the induction of β-galactosidase gene expression (D). Alignment of the amino acid sequence of the C-terminal 77 amino acids of PRK2 with the equivalent region of AGC subfamily kinases indicated (E). Identical residues are denoted by white-on-black letters, and similar residues by grey boxes. PRK2 (SEQ ID NO:14; PRK1 (SEQ ID NO:15); PKBα (SEQ ID NO:16); P70S6k (SEQ ID NO:17); SGK (SEQ ID NO:18); PKCζ (SEQ ID NO:19); PKCα (SEQ ID NO:20); PKCβ (SEQ ID NO:21).\n(§2) Myc-tagged human PDK1, kinase domain of PDK1 (residues 1-404) and the PH domain of PDK1 (428 to 556) were subcloned into the EcoRI/SalI of the yeast pAS2-1 vector. A yeast two hybrid screen was carried out using a human skeletal muscle library subcloned into the pGAD10 vector (Clontech) transformed into the yeast strain Y166. 4×10^6 yeast cells were transformed with pGAD10 library constructs and PDK1 constructs in the pAS2-1 vector. […] In this system interacting clones from the library are able to grow in medium lacking histidine and uracil and express β-galactosidase which was detected using the Clontech protocol. pGAD10 plasmids from interacting clones were isolated transferred to E. coli, and sequenced. […]"}, "PDK1 [3]": {"target": "T3, PDK1 (Homo sapiens, UniProt O15530)", "T3 construct": "expressed in transfected cells; host or cells: yeast strain Y166", "T3 sequence (O15530 1-404)": "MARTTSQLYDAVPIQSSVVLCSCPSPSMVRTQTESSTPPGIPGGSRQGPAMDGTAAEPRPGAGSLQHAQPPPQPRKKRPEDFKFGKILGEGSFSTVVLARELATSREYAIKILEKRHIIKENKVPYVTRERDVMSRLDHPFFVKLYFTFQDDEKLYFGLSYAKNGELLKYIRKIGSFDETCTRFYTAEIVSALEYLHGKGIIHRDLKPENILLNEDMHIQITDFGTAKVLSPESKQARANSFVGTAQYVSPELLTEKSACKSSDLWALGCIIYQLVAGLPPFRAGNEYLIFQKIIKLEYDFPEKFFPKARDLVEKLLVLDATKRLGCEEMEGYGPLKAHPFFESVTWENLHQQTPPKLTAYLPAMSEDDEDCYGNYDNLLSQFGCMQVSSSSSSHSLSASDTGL", "assay": "Yeast two hybrid interaction of PIF with PDK1", "type": "binding", "description": "as §1, §2", "remark": "listed apart in the source"}, "PDK1 [4]": {"target": "T4, PDK1 (Homo sapiens, UniProt O15530)", "T4 construct": "expressed in transfected cells; host or cells: yeast strain Y166", "T4 sequence (O15530 1-556)": "T1 sequence (O15530 1-556)", "assay": "Yeast two hybrid interaction of PIF with PDK1", "type": "binding", "description": "as §1, §2", "remark": "listed apart in the source"}, "His-PDK1": {"target": "T5, His-PDK1 (Homo sapiens, UniProt O15530)", "T5 construct": "made in house; host or cells: Sf21 insect cells (baculovirus, pFASTBAC HTb)", "T5 sequence (O15530 1-556)": "T1 sequence (O15530 1-556)", "assay": "Surface Plasmon Resonance (BiaCore) binding of His-PDK1 to GST-PIF / Region B peptide", "description": "FIG. 12. Quantitative analysis of the binding of PDK1 to PIF. Surface Plasmon Resonance measurements were carried out on a BiaCore instrument as described in the methods section. […] The responses at steady state binding were recorded. […] All data are single determinations from a representative experiment that was repeated at least 3 times with similar results.\nBiaCore measurements. GST-PIF was coupled through amine groups to the Sensor Chip CM5 according to the manufacturer's instructions. […] The 24 residue peptide overlapping Region B was biotinylated through its C-terminal Cys and bound to Avidin coated Sensor Chip SA. […] The decrease in steady state binding was used to determine the Kd of interaction between PDK1 and the peptide, according to the […] relationship. The measure of response in our experiments is termed RU; 1000 RU=1 ng/mm^2 of protein bound to the surface."}}, "note": "Read-outs that look alike come from different tables or passages of the source. Ends that are not written are not given here."}
{"substance": "F974: GST-PIF mutant, F974 mutated to Ala [Lipid F974]", "values": [{"measurement": "association of endogenous PDK1 with GST-PIF protein", "setting": "endogenous PDK1", "value": "completely abolished"}]}
{"substance": "F977: GST-PIF mutant, F977 mutated to Ala [Lipid F977]", "values": [{"measurement": "association of endogenous PDK1 with GST-PIF protein", "setting": "endogenous PDK1", "value": "completely abolished"}]}
{"substance": "PIF: C-terminal 77 amino acids of PRK2", "values": [{"measurement": "inhibition of the catalytic activity of PDK1", "setting": "PDK1 [1]", "value": "~2", "unit": "fold"}, {"measurement": "two hybrid interaction with the PH domain of PDK1", "setting": "PDK1 [2]", "value": "not"}, {"measurement": "two hybrid interaction with the isolated kinase domain of PDK1", "setting": "PDK1 [3]", "value": "positive interaction"}, {"measurement": "two hybrid interaction with full length PDK1", "setting": "PDK1 [4]", "value": "positive interaction"}]}
{"substance": "REPRILSEEEQEMFRDFDYIADWC [Region B peptide]", "values": [{"measurement": "Kd", "setting": "His-PDK1; His-PDK1 0.5 μM mixed with free peptide, injected over immobilised peptide, read-out: Kd from competition by addition of free peptide", "value": 1500, "unit": "nM"}, {"measurement": "Kd", "setting": "His-PDK1; immobilised and biotinylated 24 residue peptide, His-PDK1 injected, read-out: Kd", "value": 800, "unit": "nM"}]}
{"substance": "Y979: GST-PIF mutant, Y979 mutated to Ala [Lipid Y979]", "values": [{"measurement": "association of endogenous PDK1 with GST-PIF protein", "setting": "endogenous PDK1", "value": "completely abolished"}]}
